Article PMC11209011

Tests used:
[1] = target: recombinant Fc-tagged CD55 (UniProt P08174); assay: SPR; Biacore T200, 25°C; CD55-Fc immobilized on a Protein G chip, tetramers or monomers as analyte; 150mM NaCl, 0.05% BSA, 0.05% Tween-20, pH 7,5; KD calculated from kon and koff; biological duplicate
Δ2 CD55 IRES GFP = assay: flow cytometry on cells

Chain of UniProt P08174 (P08174 35-353): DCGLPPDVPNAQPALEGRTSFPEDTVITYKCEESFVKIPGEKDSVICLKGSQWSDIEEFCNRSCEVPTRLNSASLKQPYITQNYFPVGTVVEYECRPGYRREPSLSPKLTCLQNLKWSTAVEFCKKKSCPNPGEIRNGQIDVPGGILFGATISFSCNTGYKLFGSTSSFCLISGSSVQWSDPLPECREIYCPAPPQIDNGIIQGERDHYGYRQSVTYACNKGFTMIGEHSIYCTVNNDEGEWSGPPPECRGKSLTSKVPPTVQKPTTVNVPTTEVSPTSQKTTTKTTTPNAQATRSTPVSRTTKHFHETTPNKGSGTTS

Kd [1]: 1400 nM
reduction of the interaction against full length CD55 (Δ2 CD55 IRES GFP): 50%
Substance: HLA-C∗07:01-VRIG tetramer (from UniProt P61769 21-119) (peptide-MHC)
